The target of experiment [1] is HLA-A*24:02. Nature of the experiment: IEDB peptide-MHC binding, cellular MHC/competitive/fluorescence; ≥ and ≤ were set here for values at or beyond the usual limits of such assays. Particulars: source organism: Human herpesvirus 5 strain AD169.
The next experiment concerns the target HLA-C*03:03. The experiment can be described thus: IEDB peptide-MHC binding, purified MHC/direct/fluorescence; filed as Kd, often an IC50 or EC50 that approximates it; ≥ and ≤ were set here for values at or beyond the usual limits of such assays. The note with it: source organism: Giardia lamblia ATCC 50803.
The target in the next experiment is HLA-C*05:01. The description is as above. Particulars: source organism: Giardia lamblia ATCC 50803.
Experiment [2] addresses HLA-C*06:02. Described as above. The note with it: source organism: Giardia lamblia ATCC 50803.
A further experiment concerns the target HLA-C*08:02. The experiment is described as above. Particulars: source organism: Giardia lamblia ATCC 50803.
A further experiment has as its target HLA-C*12:03. The experiment is described as above. The note with it: source organism: Giardia lamblia ATCC 50803.
The target in another experiment is HLA-C*15:02. The experiment is described as above. The note with it: source organism: Giardia lamblia ATCC 50803.
For another experiment, the target named is HLA-B*15:42. Nature of the experiment: IEDB peptide-MHC binding, purified MHC/competitive/fluorescence; filed as Kd, often an IC50 or EC50 that approximates it; ≥ and ≤ were set here for values at or beyond the usual limits of such assays.
In a further experiment the target is HLA-B*27:20. The experiment is described as above. Particulars: source organism: Giardia lamblia ATCC 50803.
For another experiment, the target named is HLA-B*45:06. The experiment is described as above.
For the next experiment, the target named is HLA-B*46:01. Described as above. Particulars: source organism: Giardia lamblia ATCC 50803.
Another experiment addresses HLA-B*83:01. The experiment is described as above.
The target in a further experiment is HLA-C*04:01. The experiment is described as above.
A further experiment addresses HLA-C*14:02. The description is as above.
The next experiment concerns the target HLA-B*40:02. The experiment can be described thus: IEDB peptide-MHC binding, cellular MHC/competitive/fluorescence; ≥ and ≤ were set here for values at or beyond the usual limits of such assays. The note with it: source organism: Homo sapiens.
In the next experiment the target is HLA-A*03:19. Nature of the experiment: IEDB peptide-MHC binding, purified MHC/competitive/fluorescence; filed as Kd, often an IC50 or EC50 that approximates it; ≥ and ≤ were set here for values at or beyond the usual limits of such assays. Particulars: source organism: human gammaherpesvirus 4.
A further experiment deals with HLA-A*01:01. The experiment can be described thus: IEDB peptide-MHC binding, purified MHC/competitive/fluorescence; ≥ and ≤ were set here for values at or beyond the usual limits of such assays. Particulars: source organism: Vaccinia virus WR.
The next experiment concerns the target HLA-A*02:01. The experiment is described as above. Particulars: source organism: Vaccinia virus WR.
The target of another experiment is HLA-A*03:01. Described as above. Particulars: source organism: Vaccinia virus WR.
A further experiment deals with HLA-A*11:01. The experiment is described as above. The note with it: source organism: Vaccinia virus WR.
The target in experiment [3] is HLA-A*24:02. The experiment is described as above. The note with it: source organism: Vaccinia virus WR.
In the next experiment the target is HLA-B*15:01. The experiment is described as above. Particulars: source organism: Vaccinia virus WR.
In a further experiment the target is HLA-A*68:23. The experiment can be described thus: IEDB peptide-MHC binding, purified MHC/competitive/fluorescence; filed as Kd, often an IC50 or EC50 that approximates it; ≥ and ≤ were set here for values at or beyond the usual limits of such assays. The note with it: source organism: Mycobacterium tuberculosis variant bovis BCG str. Pasteur 1173P2.
Experiment [4] deals with HLA-C*06:02. The description is as above. Particulars: source organism: Mycobacterium tuberculosis variant bovis BCG str. Pasteur 1173P2.
Where [5] appears, read: source organism: Giardia lamblia ATCC 50803.
Where [6] appears, read: source organism: human gammaherpesvirus 4.
Where [7] appears, read: source organism: Mycobacterium tuberculosis variant bovis BCG str. Pasteur 1173P2.

In the experiment with HLA-A*24:02 [1], VYALPLKML registered an IC50 of 7500 nM.
Regarding YMRERFEPM, the Kd with HLA-C*03:03 is 452 nM; with HLA-C*05:01, at least 20000 nM; in the experiment with HLA-C*06:02 [2] it was 22 nM; with HLA-C*08:02, at least 20000 nM; with HLA-C*12:03, 38 nM; in the experiment with HLA-C*15:02, 70 nM. The equilibrium dissociation constant (Kd) with HLA-B*15:42 (setting [5]) was at least 5000 nM; with HLA-B*27:20 it was 0.5 nM; with HLA-B*45:06 (setting [5]) it was at least 5000 nM; in the experiment with HLA-B*46:01, 21.8 nM; with HLA-B*83:01 (setting [5]), at least 5000 nM; in the experiment with HLA-C*04:01 (setting [5]), at least 5000 nM. In the experiment with HLA-C*14:02 (setting [5]), this sequence gave an equilibrium dissociation constant (Kd) of 0.3 nM.
The sequence SSYGNIRAV yielded an IC50 in the experiment with HLA-B*40:02 of 1800 nM. In other words, the single-digit micromolar range.
Take WPTPKTHPV: the dissociation constant (Kd) in the experiment with HLA-A*03:19 was 1080 nM; with HLA-B*15:42 (setting [6]) it was at least 5000 nM; in the experiment with HLA-B*45:06 (setting [6]) it was at least 5000 nM; with HLA-B*83:01 (setting [6]), 3470 nM; with HLA-C*14:02 (setting [6]), 142 nM.
For ITCKAFGLY, the IC50 in the experiment with HLA-A*01:01 was 1550 nM; in the experiment with HLA-A*02:01, at least 173000 nM; with HLA-A*03:01, 15400 nM; in the experiment with HLA-A*11:01 it was 2820 nM; in the experiment with HLA-A*24:02 [3], at least 85100 nM; with HLA-B*15:01 it was 14000 nM.
Turning to MAAVRTTAL, the Kd with HLA-A*68:23 is 5.5 nM; in the experiment with HLA-B*15:42 (setting [7]), at least 5000 nM; in the experiment with HLA-B*45:06 (setting [7]), at least 5000 nM; with HLA-B*83:01 (setting [7]), 508 nM; in the experiment with HLA-C*04:01 (setting [7]) it was at least 20000 nM; with HLA-C*06:02 [4], 104 nM. For the same sequence, the Kd with HLA-C*14:02 (setting [7]) was 14.4 nM.

Source of the values: the Immune Epitope Database (IEDB).
